This series concerns the molecule itself. Briefly: crystal structure.

The results in this text go back to paper PMC3514461 (ACS chemical biology, 2012).

B1: hASRGL1-Thr168Ala (human asparaginase-like protein 1, processing-inactive, precursor-like variant) (enzyme, UniProt Q7L266 1-308, looked up)
chain: MNPIVVVHGGGAGPISKDRKERVHQGMVRAATVGYGILREGGSAVDAVEGAVVALEDDPEFNAGCGSVLNTNGEVEMDASIMDGKDLSAGAVSAVQCIANPIKLARLVMEKTPHCFLTDQGAAQFAAAMGVPEIPGEKLVTERNKKRLEKEKHEKGAQKTDCQKNLGAVGAVALDCKGNVAYATSTGGIVNKMVGRVGDSPCLGAGGYADNDIGAVSTTGHGESILKVNLARLTLFHIEQGKTVEEAADLSLGYMKSRVKGLGGLIVVSKTGDWVAKWTSTSMPWAAAKDGKLHFGIDPDDTTITDLP
For B1, the binding result was “binds”.
